Read-outs that look alike come from different tables or passages of the source.
T1: human TIGIT expressed on cells (stably transfected Jurkat cells) (human, UniProt Q495A1 22-244)
T1 sequence: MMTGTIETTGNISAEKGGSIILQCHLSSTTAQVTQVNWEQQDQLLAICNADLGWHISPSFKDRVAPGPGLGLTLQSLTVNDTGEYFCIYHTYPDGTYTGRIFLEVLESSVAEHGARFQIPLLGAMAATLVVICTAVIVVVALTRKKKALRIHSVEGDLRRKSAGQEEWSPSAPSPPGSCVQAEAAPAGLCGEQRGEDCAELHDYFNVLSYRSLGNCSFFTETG


Columns and labels:
[1] = target: T1, human TIGIT expressed on cells (stably …); assay: cell-based or functional assay
[2] = target: T1, human TIGIT expressed on cells (stably …); assay: TIGIT WCB: whole cell binding, flow cytometry, h-TIGIT Jurkat cells; mean
Procedure: Affinity to TIGIT was further examined in whole cell binding assay using human TIGIT transfected Jurkat cells. Antibodies were incubated with h-TIGIT transfected Jurkat cells, and binding of antibodies to h-TIGIT was determined using a secondary anti-human-IgG Fc antibody conjugated with AlexaFluor488, which was detected by flow cytometry.

[3] = target: T1, human TIGIT expressed on cells (stably …); assay: flow cytometry (whole cell binding) on h-TIGIT transfected Jurkat cells; table under the graph, Average (n=3), SD 0.37
[4] = target: T1, human TIGIT expressed on cells (stably …); assay: flow cytometry (whole cell binding) on h-TIGIT transfected Jurkat cells; table under the graph, Average (n=3), SD 1.61
[5] = target: T1, human TIGIT expressed on cells (stably …); assay: flow cytometry (whole cell binding) on h-TIGIT transfected Jurkat cells; table under the graph, Average (n=3), SD 71.12
[6] = target: T1, human TIGIT expressed on cells (stably …); assay: flow cytometry on h-TIGIT transfected Jurkat cells, anti-human IgG Fc Alexa Fluor 488
From the text: FIGS. 1A-1C depict whole cell binding of representative VHH bivalent antibodies to human TIGIT determined by flowcytometry assays. […] Y axis represents Mean Fluorescence Intensity of AlexaFlour 488. X axis represents antibody concentrations in nanomolar. 2B7, 1G1, 1C12, 3G6, 2B10, 3G7, 3G10, 13H11, and 15A5 are VHH clones of anti-human TIGIT. FIG. 1C is a schematic of the structure of a TIGIT VHH bivalent antibody.
Binding affinities of the bivalent clones to human TIGIT transfected Jurkat cells were confirmed by flowcytometry assays. Jurkat cells stably expressing human TIGIT and NFAT reporter gene were established. Specifically, Jurkat cells were transfected with human TIGIT expression vector by electroporation, and cells stably expressing human TIGIT were selected by 1 μg/ml puromycin during cell culture. Representative antibody clones were incubated at different concentrations with h-TIGIT stably expressing Jurkat cells (0.2×10^6/ml) in 100 μl/well in 96-well plate in FACS buffer (PBS with 1.5% FBS) for 30 min. After washing, Alexaflour 488 conjugated anti-human IgG Fc secondary antibody (Alexa Fluor® 488 AffiniPure Goat Anti-Human IgG, Fcγ fragment specific, Jackson labs, 1:500 dilution) was added and incubated for 30 min. After washing, mean fluorescence intensity was measured using CytoFlex (Beckman Coulter) by gating live cell population. Binding affinity was calculated using GraphPad Prism.

[7] = target: T1, human TIGIT expressed on cells (stably …); assay: as above; remark: listed apart in the source
From the text: FIGS. 3A and 3B depict whole cell binding of humanized 1C12 and 1G1 clones to human TIGIT determined by flowcytometry assays. 1C12-chimeric is an antibody with Llama VHH sequence of 1C12 clone and human IgG1 CH2 and CH3 domains, 1C12 (F-EREF), 1C12 (F-EREW) and 1C12 (F-GLEW) are humanized versions of 1C12 clone with difference of mutations in Framework 2. 1G1-chimeric is an antibody with Llama VHH sequence of 1G1 clone and human IgG1 CH2 and CH3 domains. 1G1 (F-G-ERES), 1G1 (F-A-ERES), 1G1 (F-A-EREW) and 1G1 (F-A-GLEW) are four different versions of humanized 1G1 clones with different mutations in framework 2. Y axis is values of Mean Fluorescence Intensity of AlexaFlour 488. X axis is values of antibody concentrations in nanomolar.
The binding affinities of the humanized bivalent antibodies to human TIGIT were determined by whole cell binding to h-TIGIT stably expressed on Jurkat cells. Briefly, antibodies were incubated with h-TIGIT transfected Jurkat cells (0.2×10⁶/well in 100 μl) for 30 min in FACS buffer. The cells were washed once, then incubated with anti-human IgG Fc AlexaFluor488 (1:500). Mean fluorescence intensity was determined by CytoFlex, and binding affinities of antibodies to h-TIGIT were calculated using non-liner regression by GraphPad Prism 8.0 as shown in FIG. 3A.

[8] = target: T1, human TIGIT expressed on cells (stably …); assay: flow cytometry (whole cell binding) on h-TIGIT transfected Jurkat cells; table under the graph, Average (n=3), SD 0.35

EC50 (Mean, nM), PD1 + TIGIT Combination Blockade Assay (double blockade) [1] [nM] | EC50 (Mean, nM), TIGIT Blockade Assay [1] [nM] | EC50 [2] [nM] | EC50 [3] [nM] | EC50 [4] [nM] | EC50 [5] [nM] | EC50 (read off the curve) [6] [nM] | EC50 (read off the curve) [7] [nM] | EC50 [8] [nM] | Binder
1.15 | 2.7 | 0.81 | 0.55 | – | – | – | – | – | anti-TIGIT x anti-PD1 bispecific antibody, HCN version (bispecific antibody, human IgG4 S228P, kappa, VHH 2A3 fused to the N-terminus of the anti-PD1 heavy chain; also called aTIGITxaPD1-HCN; BsAb HCN) heavy: not shown light: DIQMTQSPSSLSASVGDRVTITCKASQDVTTAVAWYQQKPGKAPKLLIYWASTRHTGVPSRFSGSGSGTDFTLTISSLQPEDFATYYCQQHYTIPWTFGGGTKLEIKRTVAAPSVFIFPPSDEQLKSGTASVVCLLNNFYPREAKVQWKVDNALQSGNSQESVTEQDSKDSTYSLSSTLTLSKADYEKHKVYACEVTHQGLSSPVTKSFNRGEC
2.61 | 25.9 | 4.93 | – | 4.2 | – | – | – | – | anti-TIGIT x anti-PD1 bispecific antibody, HCC version (bispecific antibody, human IgG4 S228P, kappa, VHH 2A3 fused to the C-terminus of the anti-PD1 heavy chain; also called aTIGITxaPD1-HCC) heavy: not shown light: DIQMTQSPSSLSASVGDRVTITCKASQDVTTAVAWYQQKPGKAPKLLIYWASTRHTGVPSRFSGSGSGTDFTLTISSLQPEDFATYYCQQHYTIPWTFGGGTKLEIKRTVAAPSVFIFPPSDEQLKSGTASVVCLLNNFYPREAKVQWKVDNALQSGNSQESVTEQDSKDSTYSLSSTLTLSKADYEKHKVYACEVTHQGLSSPVTKSFNRGEC
0.48 | 10.3 | 192 | – | – | 155 | – | – | – | anti-TIGIT x anti-PD1 bispecific antibody, LCC version (bispecific antibody, human IgG4 S228P, kappa, VHH 2A3 fused to the C-terminus of the anti-PD1 light chain; also called aTIGITxaPD1-LCC; aTIGITxaPDI-LCC) heavy: not shown light: DIQMTQSPSSLSASVGDRVTITCKASQDVTTAVAWYQQKPGKAPKLLIYWASTRHTGVPSRFSGSGSGTDFTLTISSLQPEDFATYYCQQHYTIPWTFGGGTKLEIKRTVAAPSVFIFPPSDEQLKSGTASVVCLLNNFYPREAKVQWKVDNALQSGNSQESVTEQDSKDSTYSLSSTLTLSKADYEKHKVYACEVTHQGLSSPVTKSFNRGECGSGGSGGSGGSGQVQLVESGGGVVQPGRSLRLSCAASGGSFSSYPMGWFRQAPGKERESVAAISSDLRFTYYADSVKGRFTISRDNSKNTLYLQMNSLRAEDTAVYYCAARTSGVGYYSRAQWYDYWGQGTLVTVSS
– | – | – | – | – | – | ~0.09 | ~0.07 | – | 1G1 bivalent VHH antibody (1G1-chimeric) (Fc fusion, Llama VHH of 1G1 with human IgG1 CH2 and CH3; also called chimeric parental clone; not shown: human IgG1 CH2 and CH3 domains) QVQLVESGGGLVQAGDSLRLSCVASGPSFSSYPMGWFRQGPGKERESVAAISSDGRFTYYAASVKGRFTISKDNAKSAAFLQMNSLKPEDTAVYYCAARDSGSGYYSRAQWYDYWGQGTLVTVSS
1.23 | 8.7 | 0.75 | – | – | – | – | – | 0.61 | anti-TIGIT x anti-PD1 bispecific antibody, LCN version (bispecific antibody, human IgG4 S228P, kappa, VHH 2A3 fused to the N-terminus of the anti-PD1 light chain; also called aTIGITxaPD1-LCN) heavy: not shown light: QVQLVESGGGVVQPGRSLRLSCAASGGSFSSYPMGWFRQAPGKERESVAAISSDLRFTYYADSVKGRFTISRDNSKNTLYLQMNSLRAEDTAVYYCAARTSGVGYYSRAQWYDYWGQGTLVTVSSGSGGSGGSGGSGDIQMTQSPSSLSASVGDRVTITCKASQDVTTAVAWYQQKPGKAPKLLIYWASTRHTGVPSRFSGSGSGTDFTLTISSLQPEDFATYYCQQHYTIPWTFGGGTKLEIKRTVAAPSVFIFPPSDEQLKSGTASVVCLLNNFYPREAKVQWKVDNALQSGNSQESVTEQDSKDSTYSLSSTLTLSKADYEKHKVYACEVTHQGLSSPVTKSFNRGEC
– | – | – | – | – | – | ~0.04 | ~0.03 | – | 1C12 bivalent VHH antibody (1C12-chimeric) (Fc fusion, Llama VHH of 1C12 with human IgG1 CH2 and CH3; also called chimeric parental clone; not shown: human IgG1 CH2 and CH3 domains) QVQLVESGGGLVQTGDSLRLSCAASSRIFSRYGMGWFRQAPGKEREFVAAISWNGASTTYTDSVKGRFTISRDSAENTTYLQINSLRPEDTAVYYCAADPWGAVKLGTAEYEYWGQGTQVTVSS
